Results: patent US20220324953A1 (JIANGSU HENGRUI MEDICINE, published 2022)

What was measured:
[1] = target: T1, human CTGF protein (R&D, Cat No. 9190-CC) (human, UniProt P29279 27-349); assay: ELISA, plate coated with CTGF (R&D 9190-CC)
T1 construct: Bought protein; also called CTGF recombinant protein; CTGF (R&D)
T1 sequence: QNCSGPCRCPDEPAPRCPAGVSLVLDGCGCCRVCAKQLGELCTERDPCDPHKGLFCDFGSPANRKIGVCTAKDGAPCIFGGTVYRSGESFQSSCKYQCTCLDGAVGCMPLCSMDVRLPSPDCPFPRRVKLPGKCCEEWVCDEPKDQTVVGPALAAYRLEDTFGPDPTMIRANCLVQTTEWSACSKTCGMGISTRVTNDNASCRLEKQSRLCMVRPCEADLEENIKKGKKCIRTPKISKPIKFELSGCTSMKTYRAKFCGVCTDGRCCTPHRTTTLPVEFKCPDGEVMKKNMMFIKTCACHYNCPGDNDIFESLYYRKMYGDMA
Summary of the method: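 Plates were coated with recombinant human CTGF at 0.2 μg/ml in PBS pH 7.4 and blocked with 5% skim milk. Antibodies at serial concentrations were incubated 1 h at 37 °C, then detected with HRP anti-mouse or anti-human secondary and TMB at 450 nm. EC50 values were derived from the binding curves.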

[2] = target: T2, human CTGF (antigen of the Biacore assays) (human, UniProt P29279 27-349); assay: Biacore, antibody captured on Protein A, CTGF in flow, 1:1 fit
T2 construct: also called antigen human CTGF; human CTGF protein
T2 sequence (looked up): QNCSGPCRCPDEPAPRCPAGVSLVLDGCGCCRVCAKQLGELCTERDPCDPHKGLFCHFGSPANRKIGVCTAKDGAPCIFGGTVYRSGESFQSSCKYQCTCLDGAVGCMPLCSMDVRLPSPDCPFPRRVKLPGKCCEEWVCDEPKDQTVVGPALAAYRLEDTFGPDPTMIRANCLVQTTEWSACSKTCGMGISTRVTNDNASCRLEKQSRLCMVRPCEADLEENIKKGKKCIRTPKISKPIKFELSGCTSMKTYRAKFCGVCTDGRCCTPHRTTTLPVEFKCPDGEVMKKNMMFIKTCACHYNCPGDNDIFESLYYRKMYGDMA
Summary of the method: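 Antibodies captured on a Protein A chip, with human or mouse CTGF flowed over in HBS-EP running buffer; association and dissociation recorded in real time. Surface regenerated with glycine-HCl pH 1.5 between cycles; kinetics fitted to a 1:1 model.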

B1: Hu164-57wl (antibody, human IgG1, lambda, V domains shown)
VH: EVTLKESGPVLVKPTETLTLTCTVSGFSLSTFGVHWIRQPPGKALEWLAVIWRRGGTDYNAAFMSRLTISKDTSKSQVVLTMTNMDPVDTATYYCARDGGFDYWGQGTTVTVSS
VL: ETVVTQEPSLTVSPGGTVTLTCRSSIGAVTTSNYANWVQQKPGQAFRGLIGGTSNRAPWTPARFSGSLLGGKAALTLSGVQPEDEAEYYCALWYSTHYVFGGGTKLTVLG
Which results are given for B1?
EC50 [1]: 0.044 nM; Kd [2]: 0.0691 nM; koff [2]: 0.00294 s⁻¹; kon [2]: 4.26e+07 M⁻¹ s⁻¹
